This passage reports kon and Kd results from paper PMC8849478.

Assay [1] addresses human haptoglobin, mixture of phenotypes Hp2-1 and Hp2-2 (human) (UniProt P00738). The experiment in a line: stopped-flow fluorescence spectrometry; Hp (0.25 μM, Hb tetramer binding basis) rapidly mixed with excess Hb/metHb at various concentrations; excitation 285 nm, emission 310 nm; monoexponential fit gives pseudo first order constants, linear regression against Hb/metHb concentration gives the bimolecular rate constant.

A further assay has as its target human hemoglobin (human) (UniProt P69905). As to the kind of experiment: SEC; tetramer to dimers; SEC-HPLC of samples at 1.25, 2.5, 5, 10 and 20 μM (heme basis) after incubation in 0.1 M PBS pH 7.4 at 4°C for one week; fraction of tetramers by deconvolution, Kd from the intercept of the linearised plot (Eq 3). A general note: SEC sorts molecules by how far they enter the pores of the column.

For assay [2], the target named is human methemoglobin (human) (UniProt P69905). Described as above.

The kon is a measure of how fast the partners come together. A word on the Kd: it is the concentration at which binding is half-saturated. Read a low Kd as a tighter complex.

Chain of human hemoglobin, P69905 1-142; P68871 1-147 (complex; other documents disagree on this pair) (P69905 whole entry): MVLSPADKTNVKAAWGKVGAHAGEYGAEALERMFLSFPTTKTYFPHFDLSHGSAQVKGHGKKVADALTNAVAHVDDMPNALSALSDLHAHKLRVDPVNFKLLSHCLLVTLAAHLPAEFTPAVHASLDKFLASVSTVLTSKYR
Chain of human hemoglobin, P69905 1-142; P68871 1-147 (complex; other documents disagree on this pair) (P68871 whole entry): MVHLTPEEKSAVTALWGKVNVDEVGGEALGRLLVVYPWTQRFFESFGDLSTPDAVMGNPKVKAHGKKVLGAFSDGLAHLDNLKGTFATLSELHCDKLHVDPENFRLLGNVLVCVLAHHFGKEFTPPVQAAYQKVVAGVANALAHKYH
Chain of human methemoglobin, P69905 1-142; P68871 1-147 (complex; other documents disagree on this pair) (P69905 whole entry): as the sequence (P69905 whole entry) above
Chain of human methemoglobin, P69905 1-142; P68871 1-147 (complex; other documents disagree on this pair) (P68871 whole entry): as the sequence (P68871 whole entry) above
Chain of bovine hemoglobin (P01966 whole entry): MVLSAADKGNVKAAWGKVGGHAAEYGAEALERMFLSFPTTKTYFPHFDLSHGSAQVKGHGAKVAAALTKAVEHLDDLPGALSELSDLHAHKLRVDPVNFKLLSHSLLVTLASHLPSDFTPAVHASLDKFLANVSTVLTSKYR
Chain of bovine hemoglobin (P02070 whole entry): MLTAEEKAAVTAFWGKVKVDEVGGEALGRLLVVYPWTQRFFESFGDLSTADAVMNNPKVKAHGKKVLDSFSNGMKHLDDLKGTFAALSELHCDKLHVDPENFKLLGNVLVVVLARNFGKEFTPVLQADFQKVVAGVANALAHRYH
Chain of bovine methemoglobin (P01966 whole entry): as the sequence (P01966 whole entry) above
Chain of bovine methemoglobin (P02070 whole entry): as the sequence (P02070 whole entry) above

As to “bovine hemoglobin (from UniProt P01966 1-142; P02070 1-145) (complex)”, in assay [1], the association rate constant (kon) stood at 147000 M⁻¹ s⁻¹. Same read-out and setting: then “bovine methemoglobin (from UniProt P01966 1-142; P02070 1-145) (complex)”, with 140000 M⁻¹ s⁻¹. Substance “human hemoglobin, P69905 1-142; P68871 1-147 (complex; other documents disagree on this pair)” yielded a Kd with human hemoglobin (human) of 0.23 µM. The substance “human methemoglobin, P69905 1-142; P68871 1-147 (complex; other documents disagree on this pair)” gave a Kd in assay [2] of 0.45 µM.
